Laboratory results from patent publication US20220332795A1.

Molecular target: human serum albumin (human) (UniProt P02768)
Experiment: solution ELISA screen (luminescence)

Chain of human serum albumin (human) (P02768 25-609 limits assumed): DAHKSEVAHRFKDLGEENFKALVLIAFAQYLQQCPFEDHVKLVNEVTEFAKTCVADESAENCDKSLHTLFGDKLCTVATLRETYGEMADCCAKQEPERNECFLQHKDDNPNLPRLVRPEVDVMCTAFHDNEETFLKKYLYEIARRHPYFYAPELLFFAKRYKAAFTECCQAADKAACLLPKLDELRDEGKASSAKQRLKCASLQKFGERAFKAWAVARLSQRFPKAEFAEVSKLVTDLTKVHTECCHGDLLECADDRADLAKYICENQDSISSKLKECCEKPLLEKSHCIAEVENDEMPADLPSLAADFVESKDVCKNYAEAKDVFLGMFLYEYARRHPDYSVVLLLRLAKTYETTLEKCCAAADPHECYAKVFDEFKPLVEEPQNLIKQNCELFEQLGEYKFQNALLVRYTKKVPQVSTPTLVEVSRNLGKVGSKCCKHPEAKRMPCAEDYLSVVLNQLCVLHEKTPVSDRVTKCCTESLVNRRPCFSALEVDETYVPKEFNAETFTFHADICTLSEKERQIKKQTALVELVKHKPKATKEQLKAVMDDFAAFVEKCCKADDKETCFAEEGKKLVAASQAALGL

Binder	RLU [RLU]
SEQ ID NO 204 (designed binder, not shown: small tags and cut ends) MLPAPKNLVVSRVTEDSARLSWTAPDAAFDSFFIGYLEPQPPGEAILLWVPGSERSYDLTGLKPGTEYNVTIQGVKGGFPSQFTT	20000
SEQ ID NO 246 (designed binder, not shown: small tags and cut ends) MLPAPKNLVVSRVTEDSARLSWTAPDAAFDSFYIAYAEPRPDGEAIQLHVPGSERSYDLTGLKPGTEYSVLIHGVKGGLLSSPLYAFFTT	25800
SEQ ID NO 214 (designed binder, not shown: small tags and cut ends) MLPAPKNLVVSRVTEDSARLSWTAPDAAFDSFYIAYAEPRPDGEAIGLQVPGSERSYDLTGLKPGTEYSVLIHGVKGGLLSSPLCAEFTT	30200
SEQ ID NO 215 (designed binder, not shown: small tags and cut ends) MLPAPKNLVVSRVTEDSARLSWTAPDAAFDSFYIAYAEPRPDGEAIVLWVPGSERSYDLTGLKPGTEYSVLIHGVKGGLLSSPLIAEFTT	22400
SEQ ID NO 247 (designed binder, not shown: small tags and cut ends) MLPAPKNLVVSRVTEDSARLSWTAPDAAFDSFYIAYAEPRPDGEAILLHVPGSERSYDLTGLKPGTEYSVLIHGVKGGLLSSPLRASFTT	19000
SEQ ID NO 217 (designed binder, not shown: small tags and cut ends) MLPAPKNLVVSRVTEDSARLSWTAPDAAFDSFYIAYAEPRPDGEAIILEVPGSERSYDLTGLKPGTEYSVLIHGVKGGLLSSPLRAVFTT	16200
SEQ ID NO 212 (designed binder, not shown: small tags and cut ends) MLPAPKNLVVSRVTEDSARLSWTAPDAAFDSFYIAYAEPRPDGEAIWLAVPGSERSYDLTGLKPGTEYSVLIHGVKGGLLSSPLHAQFTT	17400
SEQ ID NO 207 (designed binder, not shown: small tags and cut ends) MLPAPKNLVVSRVTEDSARLSWTAPDAAFDSFYIAYAEPRPDGEAIHLSVPGSERSYDLTGLKPGTEYSVLIHGVKGGLLSSPLAAYFTT	121000
SEQ ID NO 206 (designed binder, not shown: small tags and cut ends) MLPAPKNLVVSRVTEDSARLSWTAPDAAFDSFYIAYAEPRPDGEAIGLDVPGSERSYDLTGLKPGTEYSVLIHGVKGGLLSSPLSAIFTT	14000
SEQ ID NO 209 (designed binder, not shown: small tags and cut ends) MLPAPKNLVVSRVTEDSARLSWTAPDAAFDSFYIAYAEPRPDGEAILLQVPGSCRSYDLTGLKPGTEYSVLIHGVKGGLLSSPLTAIFTT	17800
SEQ ID NO 211 (designed binder, not shown: small tags and cut ends) MLPAPKNLVVSRVTEDSARLSWTAPDAAFDSFYIAYAEPRPDGEAIQLHVPGSERSYDLTGLKPGTEYSVLIHGVKGGLLSSPLVAIFTT	13000
SEQ ID NO 218 (designed binder, not shown: small tags and cut ends) MLPAPKNLVVSRVTEDSARLSWTAPDAAFDSFYIAYAEPRPDGEAIHLVVPGSERSYDLTGLKPGTEYSVLIHGVKGGLLSSPLSAIFTT	14100
SEQ ID NO 213 (designed binder, not shown: small tags and cut ends) MLPAPKNLVVSRVTEDSARLSWTAPDAAFDSFYIAYAEPRPDGEAILLGVPGSERSYDLTGLKPGTEYSVLIHGVKGGLLSSPLFTT	70300
SEQ ID NO 205 (designed binder, not shown: small tags and cut ends) MLPAPKNLVVSRVTEDSARLSWTAPDAAFDSFFIGYLEPQPPGEAILLGVPGSERSYDLTGLKPGTEYNVTIQGVKGGFPSMPLHPLVALFTT	155000
SEQ ID NO 203 (designed binder, not shown: small tags and cut ends) MLPAPKNLVVSRVTEDSARLSWTAPDAAFDSFFIGYLEPQPPGEAIVLLVPGSERSYDLTGLKPGTEYNVTIQGVKGGFPSVPLAAFFTT	26000
SEQ ID NO 208 (designed binder, not shown: small tags and cut ends) MLPAPKNLVVSRVTEDSARLSWTAPDAAFDSFFIGYLEPQPPGEAIVLAVPGSERSYDLTGLKPGTEYNVTIQGVKGGFPSYPLVAAFTT	16400
SEQ ID NO 210 (designed binder, not shown: small tags and cut ends) MLPAPKNLVVSRVTEDSARLSWTAPDAAFDSFFIGYLEPQPPGEAINLQVPGSERSYDLTGLKPGTEYNVTIQGVKGGFPSFPLSAVFTT	48600
SEQ ID NO 216 (designed binder, not shown: small tags and cut ends) MLPAPKNLVVSRVTEDSARLSWTAPDAAFDSFYIAYAEPRPDGEAISLSVPGSERSYDLTGLKPGTEYSVLIHGVKGGLLSSPPKFTT	192000

Second part, the binder after the results:

RLU [RLU]	Binder
26500	SEQ ID NO 258 (designed binder, not shown: small tags and cut ends) MLPAPKNLVVSRVTEDSARLSWTAPDAAFDSFYIAYAEPRPDGEAILLEVPGSERSYDLTGLKPGTEYSVLIHGVKGGLLSSPLVAFFTT
24100	SEQ ID NO 249 (designed binder, not shown: small tags and cut ends) MLPAPKNLVVSRVTEDSARLSWTAPDAAFDSFYIAYAEPRPDGEAIVLEVPGSERSYDLTGLKPGTEYSVLIHGVKGGLLSSPLHANFTT
174000	SEQ ID NO 261 (designed binder, not shown: small tags and cut ends) MLPAPKNLVVSRVTEDSARLSWTAPDAAFDSFYIAYAEPRPDGEAILLQVPGSERSYDLTGLKPGTEYSVLIHGVKGGLLSSPLIAKFTT
76100	SEQ ID NO 256 (designed binder, not shown: small tags and cut ends) MLPAPKNLVVSRVTEDSARLSWTAPDAAFDSFYIAYAEPRPDGEAIQLTVPGSERSYDLTGLKPGTEYSVLIHGVKGGLLSSPLHAYFTT
29800	SEQ ID NO 267 (designed binder, not shown: small tags and cut ends) MLPAPKNLVVSRVTEDSARLSWTAPDAAFDSFYIAYAEPRPDGEAIGLWVPGSERSYDLTGLKPGTEYSVLIHGVKGGLLSSPLVAYFTT
29800	SEQ ID NO 257 (designed binder, not shown: small tags and cut ends) MLPAPKNLVVSRVTEDSARLSWTAPDAAFDSFYIAYAEPRPDGEAIQLGVPGSERSYDLTGLKPGTEYSVLIHGVKGGLLSSPLRAYFTT
36200	SEQ ID NO 266 (designed binder, not shown: small tags and cut ends) MLPAPKNLVVSRVTEDSARLSWTAPDAAFDSFYIAYAEPRPDGEAIRLQVPGSERSYDLTGLKPGTEYSVLIHGVKGGLLSSPLGASFTT
24400	SEQ ID NO 264 (designed binder, not shown: small tags and cut ends) MLPAPKNLVVSRVTEDSARLSWTAPDAAFDSFYIAYAEPRPDGEAINLSVPGSERSYDLTGLKPGTEYSVLIHGVKGGLLSSPLDAYFTT
30900	SEQ ID NO 262 (designed binder, not shown: small tags and cut ends) MLPAPKNLVVSRVTEDSARLSWTAPDAAFDSFYIAYAEPRPDGEAIVLHVPGSERSYDLTGLKPGTEYSVLIHGVKGGLLSSPLQAIFTT
72800	SEQ ID NO 252 (designed binder, not shown: small tags and cut ends) MLPAPKNLVVSRVTEDSARLSWTAPDAAFDSFYIAYAEPRPDGEAIVLHVPGSERSYDLTGLKPGTEYSVLIHGVKGGLLSSPLDAFFTT
30700	SEQ ID NO 265 (designed binder, not shown: small tags and cut ends) MLPAPKNLVVSRVTEDSARLSWTAPDAAFDSFYIAYAEPRPDGEAIVLEVPGSERSYDLTGLKPGTEYSVLIHGVKGGLLSSPLTASFTT
48400	SEQ ID NO 250 (designed binder, not shown: small tags and cut ends) MLPAPKNLVVSRVTEDSARLSWTAPDAAFDSFYIAYAEPRPDGEAILLRVPGSERSYDLTGLKPGTEYSVLIHGVKGGLLSSPLYAKFTT
21500	SEQ ID NO 254 (designed binder, not shown: small tags and cut ends) MLPAPKNLVVSRVTEDSARLSWTAPDAAFDSFYIAYAEPRPDGEAILLAVPGSERSYDLTGLKPGTEYSVLIHGVKGGLLSSPLSAKFTT
19900	SEQ ID NO 269 (designed binder, not shown: small tags and cut ends) MLPAPKNLVVSRVTEDSARLSWTAPDAAFDSFYIAYAEPRPDGEAIWLDVPGSERSYDLTGLKPGTEYSVLIHGVKGGLLSSPLDAYFTT
33400	SEQ ID NO 260 (designed binder, not shown: small tags and cut ends) MLPAPKNLVVSRVTEDSARLSWTAPDAAFDSFYIAYAEPRPDGEAIHLRVPGSERSYDLTGLKPGTEYNVTIQGVKGGFPSMPLSAIFTT
34000	SEQ ID NO 248 (designed binder, not shown: small tags and cut ends) MLPAPKNLVVSRVTEDSARLSWTAPDAAFDSFYIAYAEPRPDGEAIWLGVPGSERSYDLTGLKPGTEYSVLIHGVKGGLLSSPLHATFTT
25400	SEQ ID NO 259 (designed binder, not shown: small tags and cut ends) MLPAPKNLVVSRVTEDSARLSWTAPDAAFDSFYIAYAEPRPDGEAIQLGVPGSERSYDLTGLKPGTEYSVLIHGVKGGLLSSPLLAVFTT
37700	SEQ ID NO 253 (designed binder, not shown: small tags and cut ends) MLPAPKNLVVSRVTEDSARLSWTAPDAAFDSFYIAYAEPRPDGEAIILHVPGSERSYDLTGLKPGTEYSVLIHGVKGGLLSSPLDAYFTT
23800	SEQ ID NO 263 (designed binder, not shown: small tags and cut ends) MLPAPKNLVVSRVTEDSARLSWTAPDAAFDSFYIAYAEPRPDGEAIALVVPGSERSYDLTGLKPGTEYSVLIHGVKGGLLSSPLAANFTT
117000	SEQ ID NO 268 (designed binder, not shown: small tags and cut ends) MLPAPKNLVVSRVTEDSARLSWTAPDAAFDSFYIAYAEPRPDGEAIYLEVPGSERSYDLTGLKPGTEYSVLIHGVKGGLLSSPLFTT
64400	SEQ ID NO 270 (designed binder, not shown: small tags and cut ends) MLPAPKNLVVSRVTEDSARLSWTAPDAAFDSFAIEYCETKMCGEAIVLTVPGSERSYDLTGLKPGTEYRVPIPGVKGGTASLPLSAIFTT
26100	SEQ ID NO 251 (designed binder, not shown: small tags and cut ends) MLPAPKNLVVSRVTEDSARLSWTAPDAAFDSFFIGYLEPQPPGEAIGLWVPGSERSYDLTGLKPGTEYNVTIQGVKGGFPSDPLQAVFTT
102000	SEQ ID NO 255 (designed binder, not shown: small tags and cut ends) MLPAPKNLVVSRVTEDSARLSWTAPDAAFDSFFIGYLEPQPPGEAILLFVPGSERSYDLTGLKPGTEYNVTIQGVKGGFPSTPLSASFTT
